Test results: patent US11440969B2, “Use of human epididymis protein 4 (HE4) for assessing responsiveness of MUC 16-positive cancer treatment” (Genentech, Inc., priority 2016, dated 2022)

Experiments:
[1] = tested on: platinum-resistant ovarian cancer; test: Clinical activity of DMUC5754A (RECIST v1.1) in ovarian cancer patients; assay type: in vivo, human
Description: This multicenter, open-label, dose-escalation study was designed to identify the recommended Phase II dose (RP2D) of DMUC5754A in patients with platinum-resistant OC or unresectable pancreatic cancer. In the single-agent dose escalation stage utilizing a 3+3 enrollment scheme, patients were given intravenous DMUC5754A (Genentech Inc.) 0.3-3.2 mg/kg every 3 weeks (q3w) to evaluate the safety, tolerability, and pharmacokinetics of DMUC5754A. Following determination of the maximum tolerated dose (MTD), dose-expansion cohorts were enrolled at the RP2D of 2.4 mg/kg to further characterize the safety and preliminary clinical efficacy of DMUC5754A.
Dosing on a weekly (qlw) schedule was also evaluated at the RP2D, employing a 3+3 design to determine the MTD of weekly dosing, followed by a cohort expansion to further characterize the safety and activity of q1w dosing.
OC patients had advanced, epithelial ovarian, primary peritoneal, or fallopian tube cancer that progressed or relapsed within 6 months after the most recent treatment with a platinum-containing chemotherapy regimen and for which no standard therapy exists. […] Progression or relapse from prior platinum-based chemotherapy was documented by RECIST v1.1 or Gynecologic Cancer Intergroup (GCIG) CA125 progression criteria (Vergote et al., 2000). Patients were allowed ≤2 prior chemotherapy regimens.
Objective response rate was estimated only for patients with disease that was measurable by RECIST guidelines. Objective response is defined as a complete or partial response, as determined by investigator assessment and confirmed by repeat assessments ≥4 weeks after initial documentation. Duration of objective response was defined as the time from the initial complete or partial response to the time of disease progression or death.

[2] = Serum anti-therapeutic antibody (ATA) bridging antibody ELISA; assay type: in vivo, human; details: patients; minimal impact on the exposure
Description: Serum anti-therapeutic antibody (ATA) samples were collected from all treated patients and were analyzed using a validated bridging antibody ELISA. Positive antibody responses were further characterized by competitive binding to determine if the response was primarily directed against the antibody or the linker-drug portion of the ADC.

B1: DMUC5754A: antibody-drug conjugate: humanized IgG1 anti-MUC16 monoclonal antibody and MMAE, linked through protease labile linker maleimidocaproyl-valine-citrulline-p-aminobenzyloxycarbonyl (conjugate, chains of the INN, looked up)
VH: EVQLVESGGGLVQPGGSLRLSCAASGYSITNDYAWNWVRQAPGKGLEWVGYISYSGYTTYNPSLKSRFTISRDTSKNTLYLQMNSLRAEDTAVYYCARWTSGLDYWGQGTLVTVSS
VL: DIQMTQSPSSLSASVGDRVTITCKASDLIHNWLAWYQQKPGKAPKLLIYGATSLETGVPSRFSGSGSGTDFTLTISSLQPEDFATYYCQQYWTTPFTFGQGTKVEIK
modifications: MMAE via mc-vc-PABC linker
Question: Which “Best response: Complete response, patients” value ([1]; 0.8 mg/kg q1w (N = 3)) does the source give for B1 here?
Answer: 0

Question: And the “Best response: Partial response, patients” value ([1]; 0.8 mg/kg q1w (N = 3))?
Answer: 1

Question: And the “Best response: Progressive disease, patients” value ([1]; 0.8 mg/kg q1w (N = 3))?
Answer: 0

Question: And the “Best response: Stable disease, patients” value ([1]; 0.8 mg/kg q1w (N = 3))?
Answer: 2

Question: What about the “Best response: Unable to evaluate, patients” value (“Best response: Unable” for short) ([1]; 0.8 mg/kg q1w (N = 3)) of the same molecule?
Answer: 0

Question: What about the “Duration of response, Median” value ([1]; 0.8 mg/kg q1w (N = 3)) of the same molecule?
Answer: 3.0 months

Question: What about the “Duration of response, Range” value ([1]; 0.8 mg/kg q1w (N = 3)) of the same molecule?
Answer: 3.0-3.0 months

Question: What about the “unconfirmed partial responses, patients” value ([1]; 1.1 mg/kg q1w) of the same molecule?
Answer: 1

Question: And the “Best response: Complete response, patients” value ([1]; 1.1 mg/kg q1w (N = 7))?
Answer: 0

Question: And the “Best response: Partial response, patients” value ([1]; 1.1 mg/kg q1w (N = 7))?
Answer: 1

Question: And the “Best response: Progressive disease, patients” value ([1]; 1.1 mg/kg q1w (N = 7))?
Answer: 3

Question: What about the “Best response: Stable disease, patients” value ([1]; 1.1 mg/kg q1w (N = 7)) of the same molecule?
Answer: 3

Question: What about the “Best response: Unable” value ([1]; 1.1 mg/kg q1w (N = 7)) of the same molecule?
Answer: 0

Question: And the “Duration of response, Median” value ([1]; 1.1 mg/kg q1w (N = 7))?
Answer: 6.8 months

Question: What about the “Duration of response, Range” value ([1]; 1.1 mg/kg q1w (N = 7)) of the same molecule?
Answer: 6.8-6.8 months

Question: What about the “minor responses, patients” value ([1]; 1.2 mg/kg q3w) of the same molecule?
Answer: 1

Question: What about the “minor responses, patients” value ([1]; 1.4 mg/kg q1w) of the same molecule?
Answer: 1

Question: What about the “Best response: Complete response, patients” value ([1]; 1.4 mg/kg q1w (N = 6)) of the same molecule?
Answer: 0

Question: What about the “Best response: Partial response, patients” value ([1]; 1.4 mg/kg q1w (N = 6)) of the same molecule?
Answer: 1

Question: And the “Best response: Progressive disease, patients” value ([1]; 1.4 mg/kg q1w (N = 6))?
Answer: 2

Question: What about the “Best response: Stable disease, patients” value ([1]; 1.4 mg/kg q1w (N = 6)) of the same molecule?
Answer: 2

Question: What about the “Best response: Unable” value ([1]; 1.4 mg/kg q1w (N = 6)) of the same molecule?
Answer: 1

Question: What about the “Duration of response, Median” value ([1]; 1.4 mg/kg q1w (N = 6)) of the same molecule?
Answer: 4.6 months

Question: And the “Duration of response, Range” value ([1]; 1.4 mg/kg q1w (N = 6))?
Answer: 4.6-4.6 months

Question: What about the “minor responses, patients” value ([1]; 1.6 mg/kg q1w) of the same molecule?
Answer: 1

Question: And the “minor responses, patients” value ([1]; 2.4 mg/kg q3w)?
Answer: Two

Question: What about the “unconfirmed partial responses, patients” value ([1]; 2.4 mg/kg q3w) of the same molecule?
Answer: 1

Question: And the “Best response: Complete response, patients” value ([1]; 2.4 mg/kg q3w (N = 29))?
Answer: 1

Question: What about the “Best response: Partial response, patients” value ([1]; 2.4 mg/kg q3w (N = 29)) of the same molecule?
Answer: 3

Question: What about the “Best response: Progressive disease, patients” value ([1]; 2.4 mg/kg q3w (N = 29)) of the same molecule?
Answer: 6

Question: And the “Best response: Stable disease, patients” value ([1]; 2.4 mg/kg q3w (N = 29))?
Answer: 17

Question: And the “Best response: Unable” value ([1]; 2.4 mg/kg q3w (N = 29))?
Answer: 2

Question: What about the “Duration of response, Median” value ([1]; 2.4 mg/kg q3w (N = 29)) of the same molecule?
Answer: 4.9 months

Question: And the “Duration of response, Range” value ([1]; 2.4 mg/kg q3w (N = 29))?
Answer: 3.0-11.3 months

Question: And the “minor responses, patients” value ([1]; 3.2 mg/kg q3w)?
Answer: 1

Question: And the “average length of time on the study” value ([1]; FIG. 4)?
Answer: 103 days

Question: What about the “decrease in SLD of target lesions” value ([1]; a patient at 3.2 mg/kg q3w, PD as overall status due to new lesions) of the same molecule?
Answer: > 30%

Question: And the “patients on the study ≥105 days” value ([1]; of the 29 patients at 2.4 mg/kg q3w)?
Answer: Sixteen

Question: And the “reduction (MRI), complete response” value ([1]; person, 2.4 mg/kg IV q3w, after two doses)?
Answer: 100%

Question: What about the “tumor response nadir, reduction” value ([1]; person, 2.4 mg/kg, after 8 doses) of the same molecule?
Answer: 88%

Question: And the “reduction in 3 target lesions (CT), partial response” value ([1]; person, 2.4 mg/kg, after two doses)?
Answer: 37%

Question: What about the confirmed responses ([1]; q1w cohorts, at 0.8, 1.1, and 1.4 mg/kg levels) of the same molecule?
Answer: 3

Question: What about the immunogenicity rate [2] of the same molecule?
Answer: 14.1%
